Test results: US20140087995A1 (published 2014)
Numbered stars: 1 amine (or outer) side, 2 acyl side, 3 side chain; on linkers, the order of the positions; unused ones are H or OH. Bridge positions count the residues as written; N and C are the ends. Side chains are listed from the residue outwards. Ends that are not written are not given here. * marks the point of attachment. C20 diacid = O=C(O)CCCCCCCCCCCCCCCCCCC(=O)*; γGlu = O=C(O)[C@H](CCC(=O)[*:2])N[*:1]; AEEA = NCCOCCOCC(=O)O

T1: human calcitonin receptor (human, UniProt P30988 25-474)
T1 sequence (looked up): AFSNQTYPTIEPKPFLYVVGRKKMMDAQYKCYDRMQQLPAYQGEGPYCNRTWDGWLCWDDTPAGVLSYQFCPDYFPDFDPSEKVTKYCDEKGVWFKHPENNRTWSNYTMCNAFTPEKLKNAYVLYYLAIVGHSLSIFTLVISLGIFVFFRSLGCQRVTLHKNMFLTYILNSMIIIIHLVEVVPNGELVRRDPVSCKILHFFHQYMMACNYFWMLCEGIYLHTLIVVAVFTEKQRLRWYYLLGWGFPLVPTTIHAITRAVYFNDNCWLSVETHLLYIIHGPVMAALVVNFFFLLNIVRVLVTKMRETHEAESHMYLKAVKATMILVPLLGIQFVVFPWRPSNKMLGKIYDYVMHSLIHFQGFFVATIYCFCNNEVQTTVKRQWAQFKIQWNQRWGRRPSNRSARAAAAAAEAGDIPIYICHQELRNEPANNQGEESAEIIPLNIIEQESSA


Target: T1, human calcitonin receptor
Assay: cell-based or functional assay

Binder	Ratio hCT/hAmylin funct.	hCTR funct. EC50 [nM]
K([AEEA-γGlu-C20 diacid])CNTATCATQRLAAFLRHSSPNFGAIPSSTPVGSNTY-NH2 (disulfide 2-7; N-terminus assumed; SMILES CC[C@H](C)[C@H](NC(=O)[C@H](C)NC(=O)CNC(=O)[C@H](Cc1ccccc1)NC(=O)[C@H](CC(N)=O)NC(=O)[C@@H]1CCCN1C(=O)[C@H](CO)NC(=O)[C@H](CO)NC(=O)[C@H](Cc1c[nH]cn1)NC(=O)[C@H](CCCNC(=N)N)NC(=O)[C@H](CC(C)C)NC(=O)[C@H](Cc1ccccc1)NC(=O)[C@H](C)NC(=O)[C@H](C)NC(=O)[C@H](CC(C)C)NC(=O)[C@H](CCCNC(=N)N)NC(=O)[C@H](CCC(N)=O)NC(=O)[C@@H](NC(=O)[C@H](C)NC(=O)[C@@H]1CSSC[C@H](NC(=O)[C@@H](N)CCCCNC(=O)COCCOCCNC(=O)CC[C@H](NC(=O)CCCCCCCCCCCCCCCCCCC(=O)O)C(=O)O)C(=O)N[C@@H](CC(N)=O)C(=O)N[C@@H]([C@@H](C)O)C(=O)N[C@@H](C)C(=O)N[C@@H]([C@@H](C)O)C(=O)N1)[C@@H](C)O)C(=O)N1CCC[C@H]1C(=O)N[C@@H](CO)C(=O)N[C@@H](CO)C(=O)N[C@H](C(=O)N1CCC[C@H]1C(=O)N[C@H](C(=O)NCC(=O)N[C@@H](CO)C(=O)N[C@@H](CC(N)=O)C(=O)N[C@H](C(=O)N[C@@H](Cc1ccc(O)cc1)C(N)=O)[C@@H](C)O)C(C)C)[C@@H](C)O, analogue of human amylin; also called compound 72)		4.76
K([AEEA-γGlu-C20 diacid])CNTATCATQRLANFLRHSSPNFGAIPSSTNVGSETY-NH2 (disulfide 2-7; N-terminus assumed; SMILES CC[C@H](C)[C@H](NC(=O)[C@H](C)NC(=O)CNC(=O)[C@H](Cc1ccccc1)NC(=O)[C@H](CC(N)=O)NC(=O)[C@@H]1CCCN1C(=O)[C@H](CO)NC(=O)[C@H](CO)NC(=O)[C@H](Cc1c[nH]cn1)NC(=O)[C@H](CCCNC(=N)N)NC(=O)[C@H](CC(C)C)NC(=O)[C@H](Cc1ccccc1)NC(=O)[C@H](CC(N)=O)NC(=O)[C@H](C)NC(=O)[C@H](CC(C)C)NC(=O)[C@H](CCCNC(=N)N)NC(=O)[C@H](CCC(N)=O)NC(=O)[C@@H](NC(=O)[C@H](C)NC(=O)[C@@H]1CSSC[C@H](NC(=O)[C@@H](N)CCCCNC(=O)COCCOCCNC(=O)CC[C@H](NC(=O)CCCCCCCCCCCCCCCCCCC(=O)O)C(=O)O)C(=O)N[C@@H](CC(N)=O)C(=O)N[C@@H]([C@@H](C)O)C(=O)N[C@@H](C)C(=O)N[C@@H]([C@@H](C)O)C(=O)N1)[C@@H](C)O)C(=O)N1CCC[C@H]1C(=O)N[C@@H](CO)C(=O)N[C@@H](CO)C(=O)N[C@H](C(=O)N[C@@H](CC(N)=O)C(=O)N[C@H](C(=O)NCC(=O)N[C@@H](CO)C(=O)N[C@@H](CCC(=O)O)C(=O)N[C@H](C(=O)N[C@@H](Cc1ccc(O)cc1)C(N)=O)[C@@H](C)O)C(C)C)[C@@H](C)O, analogue of human amylin; also called compound 26)		6.34
K([AEEA-AEEA-γGlu-C20 diacid])CNTATCATQRLANFLRHSSPNFGAIPSSTNVGSETY-NH2 (disulfide 2-7; N-terminus assumed; SMILES CC[C@H](C)[C@H](NC(=O)[C@H](C)NC(=O)CNC(=O)[C@H](Cc1ccccc1)NC(=O)[C@H](CC(N)=O)NC(=O)[C@@H]1CCCN1C(=O)[C@H](CO)NC(=O)[C@H](CO)NC(=O)[C@H](Cc1c[nH]cn1)NC(=O)[C@H](CCCNC(=N)N)NC(=O)[C@H](CC(C)C)NC(=O)[C@H](Cc1ccccc1)NC(=O)[C@H](CC(N)=O)NC(=O)[C@H](C)NC(=O)[C@H](CC(C)C)NC(=O)[C@H](CCCNC(=N)N)NC(=O)[C@H](CCC(N)=O)NC(=O)[C@@H](NC(=O)[C@H](C)NC(=O)[C@@H]1CSSC[C@H](NC(=O)[C@@H](N)CCCCNC(=O)COCCOCCNC(=O)COCCOCCNC(=O)CC[C@H](NC(=O)CCCCCCCCCCCCCCCCCCC(=O)O)C(=O)O)C(=O)N[C@@H](CC(N)=O)C(=O)N[C@@H]([C@@H](C)O)C(=O)N[C@@H](C)C(=O)N[C@@H]([C@@H](C)O)C(=O)N1)[C@@H](C)O)C(=O)N1CCC[C@H]1C(=O)N[C@@H](CO)C(=O)N[C@@H](CO)C(=O)N[C@H](C(=O)N[C@@H](CC(N)=O)C(=O)N[C@H](C(=O)NCC(=O)N[C@@H](CO)C(=O)N[C@@H](CCC(=O)O)C(=O)N[C@H](C(=O)N[C@@H](Cc1ccc(O)cc1)C(N)=O)[C@@H](C)O)C(C)C)[C@@H](C)O, analogue of human amylin; also called compound 25)		10
K([AEEA-γGlu-C20 diacid])CNTATCATQRLARFLRHSSPNFGAIPSSTPVGSNTY-NH2 (disulfide 2-7; N-terminus assumed; SMILES CC[C@H](C)[C@H](NC(=O)[C@H](C)NC(=O)CNC(=O)[C@H](Cc1ccccc1)NC(=O)[C@H](CC(N)=O)NC(=O)[C@@H]1CCCN1C(=O)[C@H](CO)NC(=O)[C@H](CO)NC(=O)[C@H](Cc1c[nH]cn1)NC(=O)[C@H](CCCNC(=N)N)NC(=O)[C@H](CC(C)C)NC(=O)[C@H](Cc1ccccc1)NC(=O)[C@H](CCCNC(=N)N)NC(=O)[C@H](C)NC(=O)[C@H](CC(C)C)NC(=O)[C@H](CCCNC(=N)N)NC(=O)[C@H](CCC(N)=O)NC(=O)[C@@H](NC(=O)[C@H](C)NC(=O)[C@@H]1CSSC[C@H](NC(=O)[C@@H](N)CCCCNC(=O)COCCOCCNC(=O)CC[C@H](NC(=O)CCCCCCCCCCCCCCCCCCC(=O)O)C(=O)O)C(=O)N[C@@H](CC(N)=O)C(=O)N[C@@H]([C@@H](C)O)C(=O)N[C@@H](C)C(=O)N[C@@H]([C@@H](C)O)C(=O)N1)[C@@H](C)O)C(=O)N1CCC[C@H]1C(=O)N[C@@H](CO)C(=O)N[C@@H](CO)C(=O)N[C@H](C(=O)N1CCC[C@H]1C(=O)N[C@H](C(=O)NCC(=O)N[C@@H](CO)C(=O)N[C@@H](CC(N)=O)C(=O)N[C@H](C(=O)N[C@@H](Cc1ccc(O)cc1)C(N)=O)[C@@H](C)O)C(C)C)[C@@H](C)O, analogue of human amylin; also called compound 64)		22.9

The next lines start with the values.

Ratio hCT/hAmylin funct.	hCTR funct. EC50 [nM]	Binder
12.6	1.68	{C20 diacid-γGlu}-KCNTATCATQRLAHFLRHSSPNFGAIPSSTNVGSETY-NH2 (disulfide 2-7; SMILES CC[C@H](C)[C@H](NC(=O)[C@H](C)NC(=O)CNC(=O)[C@H](Cc1ccccc1)NC(=O)[C@H](CC(N)=O)NC(=O)[C@@H]1CCCN1C(=O)[C@H](CO)NC(=O)[C@H](CO)NC(=O)[C@H](Cc1c[nH]cn1)NC(=O)[C@H](CCCNC(=N)N)NC(=O)[C@H](CC(C)C)NC(=O)[C@H](Cc1ccccc1)NC(=O)[C@H](Cc1c[nH]cn1)NC(=O)[C@H](C)NC(=O)[C@H](CC(C)C)NC(=O)[C@H](CCCNC(=N)N)NC(=O)[C@H](CCC(N)=O)NC(=O)[C@@H](NC(=O)[C@H](C)NC(=O)[C@@H]1CSSC[C@H](NC(=O)[C@H](CCCCN)NC(=O)CC[C@H](NC(=O)CCCCCCCCCCCCCCCCCCC(=O)O)C(=O)O)C(=O)N[C@@H](CC(N)=O)C(=O)N[C@@H]([C@@H](C)O)C(=O)N[C@@H](C)C(=O)N[C@@H]([C@@H](C)O)C(=O)N1)[C@@H](C)O)C(=O)N1CCC[C@H]1C(=O)N[C@@H](CO)C(=O)N[C@@H](CO)C(=O)N[C@H](C(=O)N[C@@H](CC(N)=O)C(=O)N[C@H](C(=O)NCC(=O)N[C@@H](CO)C(=O)N[C@@H](CCC(=O)O)C(=O)N[C@H](C(=O)N[C@@H](Cc1ccc(O)cc1)C(N)=O)[C@@H](C)O)C(C)C)[C@@H](C)O, analogue of human amylin; also called compound 30)
	0.731	K([AEEA-γGlu-C20 diacid])CNTATCATQRLANFLRHSSPNFGAIPPSTNVGPNTY-NH2 (disulfide 2-7; N-terminus assumed; SMILES CC[C@H](C)[C@H](NC(=O)[C@H](C)NC(=O)CNC(=O)[C@H](Cc1ccccc1)NC(=O)[C@H](CC(N)=O)NC(=O)[C@@H]1CCCN1C(=O)[C@H](CO)NC(=O)[C@H](CO)NC(=O)[C@H](Cc1c[nH]cn1)NC(=O)[C@H](CCCNC(=N)N)NC(=O)[C@H](CC(C)C)NC(=O)[C@H](Cc1ccccc1)NC(=O)[C@H](CC(N)=O)NC(=O)[C@H](C)NC(=O)[C@H](CC(C)C)NC(=O)[C@H](CCCNC(=N)N)NC(=O)[C@H](CCC(N)=O)NC(=O)[C@@H](NC(=O)[C@H](C)NC(=O)[C@@H]1CSSC[C@H](NC(=O)[C@@H](N)CCCCNC(=O)COCCOCCNC(=O)CC[C@H](NC(=O)CCCCCCCCCCCCCCCCCCC(=O)O)C(=O)O)C(=O)N[C@@H](CC(N)=O)C(=O)N[C@@H]([C@@H](C)O)C(=O)N[C@@H](C)C(=O)N[C@@H]([C@@H](C)O)C(=O)N1)[C@@H](C)O)C(=O)N1CCC[C@H]1C(=O)N1CCC[C@H]1C(=O)N[C@@H](CO)C(=O)N[C@H](C(=O)N[C@@H](CC(N)=O)C(=O)N[C@H](C(=O)NCC(=O)N1CCC[C@H]1C(=O)N[C@@H](CC(N)=O)C(=O)N[C@H](C(=O)N[C@@H](Cc1ccc(O)cc1)C(N)=O)[C@@H](C)O)C(C)C)[C@@H](C)O, analogue of human amylin; also called compound 55)
